Numbering of substitutions follows the chain as printed.
T1: SLFN5 1-336 (Schlafen core domain) (Homo sapiens, UniProt Q08AF3 1-336)
T1 sequence: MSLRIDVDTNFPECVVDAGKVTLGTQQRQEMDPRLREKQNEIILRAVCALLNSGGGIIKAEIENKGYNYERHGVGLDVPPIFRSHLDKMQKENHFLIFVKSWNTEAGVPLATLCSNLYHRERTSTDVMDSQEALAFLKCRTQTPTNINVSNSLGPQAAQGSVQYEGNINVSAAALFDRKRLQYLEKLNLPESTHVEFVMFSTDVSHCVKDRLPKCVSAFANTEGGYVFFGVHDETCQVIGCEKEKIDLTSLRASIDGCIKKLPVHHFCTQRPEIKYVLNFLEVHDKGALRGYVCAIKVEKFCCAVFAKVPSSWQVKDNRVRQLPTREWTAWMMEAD

T2: SLFN5 full length (Homo sapiens, UniProt Q08AF3 1-891)
T2 sequence: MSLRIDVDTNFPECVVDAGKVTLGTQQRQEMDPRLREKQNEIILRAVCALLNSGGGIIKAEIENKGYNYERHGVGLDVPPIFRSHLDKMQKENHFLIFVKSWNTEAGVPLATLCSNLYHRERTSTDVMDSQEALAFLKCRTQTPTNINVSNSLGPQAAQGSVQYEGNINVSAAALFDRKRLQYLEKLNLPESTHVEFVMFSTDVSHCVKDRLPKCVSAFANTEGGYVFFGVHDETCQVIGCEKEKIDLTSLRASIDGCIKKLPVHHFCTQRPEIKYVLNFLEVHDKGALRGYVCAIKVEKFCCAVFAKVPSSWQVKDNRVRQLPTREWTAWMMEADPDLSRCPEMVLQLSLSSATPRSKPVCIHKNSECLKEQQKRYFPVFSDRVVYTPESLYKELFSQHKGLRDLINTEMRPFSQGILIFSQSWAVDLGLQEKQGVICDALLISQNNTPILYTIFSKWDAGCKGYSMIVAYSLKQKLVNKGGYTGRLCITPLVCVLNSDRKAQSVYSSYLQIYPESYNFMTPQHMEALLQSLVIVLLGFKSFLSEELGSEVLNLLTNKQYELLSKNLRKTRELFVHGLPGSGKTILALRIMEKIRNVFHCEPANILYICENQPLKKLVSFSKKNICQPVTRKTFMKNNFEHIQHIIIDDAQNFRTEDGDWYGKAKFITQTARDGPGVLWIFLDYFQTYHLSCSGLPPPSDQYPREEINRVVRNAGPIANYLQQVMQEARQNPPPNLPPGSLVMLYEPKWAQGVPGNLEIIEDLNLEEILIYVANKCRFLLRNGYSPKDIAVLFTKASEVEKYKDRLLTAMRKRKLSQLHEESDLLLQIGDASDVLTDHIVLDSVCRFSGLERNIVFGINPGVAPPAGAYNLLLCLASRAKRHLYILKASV

B1: tRNA(Ser) (structured_RNA)
RNA: GUAGUCGUGGCCGAGUGGUUAAGGCGAUGGACUUGAAAUCCAUUGUGGUUUCCCCGCGCAGGUUCGAAUCCUGCCGACUACGCCA
B2: 50 bp DNA (dsDNA)
DNA 1: AATTGGTCGTAGCAAGCTCTAGCACCGCTTAAACGCACGTACGCGCTGTC
DNA 2: GACAGCGCGTACGTGCGTTTAAGCGGTGCTAGAGCTTGCTACGACCAATT
B3: 196 bp DNA (0N49) (dsDNA)
DNA 1: CTGGAGAATCCCGGTGCCGAGGCCGCTCAATTGGTCGTAGCAAGCTCTAGCACCGCTTAAACGCACGTACGCGCTGTCCCCCGCGTTTTAACCGCCAAGGGGATTACTCCCTAGTCTCCAGGCACGTGTCAGATATATACATCCTGTGCATGTATTGAACAGCGACCTTGCCGGTGCCAGTCGGATAGTGTTCCGA
DNA 2: TCGGAACACTATCCGACTGGCACCGGCAAGGTCGCTGTTCAATACATGCACAGGATGTATATATCTGACACGTGCCTGGAGACTAGGGAGTAATCCCCTTGGCGGTTAAAACGCGGGGGACAGCGCGTACGTGCGTTTAAGCGGTGCTAGAGCTTGCTACGACCAATTGAGCGGCCTCGGCACCGGGATTCTCCAG
B4: 60 rU (ssRNA)
RNA: UUUUUUUUUGCUUUUUUUUUUUUUUUUUUUUUUUUUUUUUUUUUUUUUUUUUUUUUUUUU
B5: 60 dT (ssDNA)
DNA: TTTTTTTTTTTTTTTTTTTTTTTTTTTTTTTTTTTTTTTTTTTTTTTTTTTTTTTTTTTT
B6: 60 bp DNA (60bp_A/T_GC) (dsDNA)
DNA 1: B5 DNA with T50G, T51C
DNA 2: AAAAAAAAAGCAAAAAAAAAAAAAAAAAAAAAAAAAAAAAAAAAAAAAAAAAAAAAAAAA

Assays:
[1] = biological target: T1, SLFN5 1-336 (Schlafen core domain); assay: fluorescence anisotropy; FA: 2x buffer 100 mM HEPES pH 8.0, 100 mM NaCl mixed 1:1 with 100 nM (final) FAM ligand, 30 min on ice; EMSA: 25 mM HEPES pH 7.0, 60 mM NaCl, 5% glycerol, 2 mM; conditions: protein: recombinant, tags: C-terminal His6
SLFN5 full length [2] = biological target: T2, SLFN5 full length; assay: competition EMSA; with tRNASer, 20 nM each; comparable affinities; FA: 2x buffer 100 mM HEPES pH 8.0, 100 mM NaCl mixed 1:1 with 100 nM (final) FAM ligand, 30 min on ice; EMSA: 25 mM HEPES pH 7.0, 60 mM NaCl, 5% glycerol, 2 mM; conditions: protein: recombinant; tags: N-terminal double FLAG, HRV 3C site; label: 5'-Cy5 (fwd); blunt
SLFN5 full length [3] = biological target: T2, SLFN5 full length; assay: competition EMSA; with tRNASer, 20 nM each; 196 bp DNA preferred; FA: 2x buffer 100 mM HEPES pH 8.0, 100 mM NaCl mixed 1:1 with 100 nM (final) FAM ligand, 30 min on ice; EMSA: 25 mM HEPES pH 7.0, 60 mM NaCl, 5% glycerol, 2 mM; conditions: protein: recombinant; tags: N-terminal double FLAG, HRV 3C site; label: 5'-Cy5 (rev primer); blunt

Binder	Kd ([1]; label: 5'-FAM) [µM]	also measured
B1		Kd ([1]; label: 5'-FAM, tRNA fold): 4.3 µM
UUUUUUUUUUUUUUUUUUUUUUUUUUUUUU (ssRNA) [30 rU]	5.1	
B2		binding result (SLFN5 full length [2]): binds
B3		binding result (SLFN5 full length [3]): binds
B4	3.6	
TTTTTTTTTTTTTTTTTTTTTTTTTTTTTT (ssDNA) [30 dT]	11	
B5	7.8	
B6		Kd ([1]; label: 5'-FAM (fwd), blunt): 2.5 µM

From article PMC8789055, “Structural and biochemical characterization of human Schlafen 5”
